Measured values from the supplement of paper PMC9112550, “Optimization of the antimicrobial peptide Bac7 by deep mutational scanning” (BMC Biology, 2022).
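Note: peptides expressed intracellularly from a pBAD plasmid library in pooled LB shake-flask culture, induced with 0.3% L-arabinose, DNA abundance read by NGS, three biological replicates, DESeq2 with apeglm shrinkage.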

The sequences below were run on Escherichia coli TOP10 (assay: shrunken log2 fold change of peptide-encoding DNA abundance (4.5 h post-induction vs induction); higher = less antimicrobial activity (less host growth inhibition)). Conditions: time post-induction: 4.5 h; library: site-saturation at positions 5, 18, 19, 20.
For RRIRQRPPRLPRPRPRPLEYPRP, the “shrunken log2 fold change” value was -0.082. RRIRKRPPRLPRPRPRPYQTPRP was tested, and the “shrunken log2 fold change” value was 0.0193. In the case of RRIRQRPPRLPRPRPRPHPMPRP, the “shrunken log2 fold change” value is reported as -0.185. RRIRHRPPRLPRPRPRPIAHPRP was tested, and the “shrunken log2 fold change” value was 0.0481. In the case of RRIRRRPPRLPRPRPRPFFRPRP, the “shrunken log2 fold change” value is reported as 0.354. RRIRPRPPRLPRPRPRPQEKPRP was tested, and the “shrunken log2 fold change” value was -0.0282. With RRIRCRPPRLPRPRPRPCCNPRP the “shrunken log2 fold change” value was -0.188. With RRIRKRPPRLPRPRPRPWIYPRP the “shrunken log2 fold change” value was -0.00162. For RRIRSRPPRLPRPRPRPNFNPRP, the “shrunken log2 fold change” value was -0.298. With RRIRVRPPRLPRPRPRPKYAPRP the “shrunken log2 fold change” value was -0.236. With RRIRRRPPRLPRPRPRPVDSPRP the “shrunken log2 fold change” value was 0.127. In the case of RRIRVRPPRLPRPRPRPWTIPRP, the “shrunken log2 fold change” value is reported as -0.281. In the case of RRIRMRPPRLPRPRPRPNTYPRP, the “shrunken log2 fold change” value is reported as -0.0596. With RRIRERPPRLPRPRPRPKCVPRP the “shrunken log2 fold change” value was 0.0364. In the case of RRIRYRPPRLPRPRPRPCWAPRP, the “shrunken log2 fold change” value is reported as -0.434. In the case of RRIRVRPPRLPRPRPRPDRHPRP, the “shrunken log2 fold change” value is reported as -0.0428. For RRIRERPPRLPRPRPRPTPSPRP, the “shrunken log2 fold change” value was 0.14. With RRIRSRPPRLPRPRPRPLMRPRP the “shrunken log2 fold change” value was 0.948. With RRIRVRPPRLPRPRPRPMKFPRP the “shrunken log2 fold change” value was -0.124. For RRIRPRPPRLPRPRPRPSSEPRP, the “shrunken log2 fold change” value was 0.174. For RRIRERPPRLPRPRPRPLWHPRP, the “shrunken log2 fold change” value was -0.0827. In the case of RRIRPRPPRLPRPRPRPSCMPRP, the “shrunken log2 fold change” value is reported as -0.279. For RRIRVRPPRLPRPRPRPMSYPRP, the “shrunken log2 fold change” value was -0.0627. RRIRLRPPRLPRPRPRPGYYPRP was tested, and the “shrunken log2 fold change” value was -0.166. For RRIRTRPPRLPRPRPRPQFHPRP, the “shrunken log2 fold change” value was -0.541. RRIRPRPPRLPRPRPRPRVAPRP was tested, and the “shrunken log2 fold change” value was 0.743. For RRIRRRPPRLPRPRPRPIDKPRP, the “shrunken log2 fold change” value was -0.0465. In the case of RRIRLRPPRLPRPRPRPLPSPRP, the “shrunken log2 fold change” value is reported as 3.98. For RRIRNRPPRLPRPRPRPFWEPRP, the “shrunken log2 fold change” value was -0.372. With RRIRTRPPRLPRPRPRPKCFPRP the “shrunken log2 fold change” value was -0.384. With RRIRHRPPRLPRPRPRPPWLPRP the “shrunken log2 fold change” value was 0.242. RRIRWRPPRLPRPRPRPNANPRP was tested, and the “shrunken log2 fold change” value was 0.109. In the case of RRIRQRPPRLPRPRPRPWGSPRP, the “shrunken log2 fold change” value is reported as -0.0209. For RRIRKRPPRLPRPRPRPLPPPRP, the “shrunken log2 fold change” value was 1.01. With RRIRARPPRLPRPRPRPKVLPRP the “shrunken log2 fold change” value was 0.269. With RRIRARPPRLPRPRPRPFWAPRP the “shrunken log2 fold change” value was 0.218. In the case of RRIRRRPPRLPRPRPRPVYKPRP, the “shrunken log2 fold change” value is reported as 0.0922. In the case of RRIRRRPPRLPRPRPRPALFPRP, the “shrunken log2 fold change” value is reported as 0.128. With RRIRHRPPRLPRPRPRPDYLPRP the “shrunken log2 fold change” value was -0.998. With RRIRTRPPRLPRPRPRPTSYPRP the “shrunken log2 fold change” value was -0.268. With RRIRERPPRLPRPRPRPDKKPRP the “shrunken log2 fold change” value was 0.0282. For RRIRDRPPRLPRPRPRPFFSPRP, the “shrunken log2 fold change” value was 0.115. For RRIRRRPPRLPRPRPRPSYNPRP, the “shrunken log2 fold change” value was -0.16. RRIRVRPPRLPRPRPRPYVEPRP was tested, and the “shrunken log2 fold change” value was -0.132. In the case of RRIRRRPPRLPRPRPRPTVVPRP, the “shrunken log2 fold change” value is reported as 0.0199. For RRIRTRPPRLPRPRPRPARNPRP, the “shrunken log2 fold change” value was 0.199. RRIRWRPPRLPRPRPRPFEYPRP was tested, and the “shrunken log2 fold change” value was -0.331. RRIRFRPPRLPRPRPRPQPRPRP was tested, and the “shrunken log2 fold change” value was 0.541. For RRIRVRPPRLPRPRPRPSGTPRP, the “shrunken log2 fold change” value was -0.298. For RRIRVRPPRLPRPRPRPKVFPRP, the “shrunken log2 fold change” value was -0.0519. In the case of RRIRNRPPRLPRPRPRPFQLPRP, the “shrunken log2 fold change” value is reported as -0.228. With RRIRRRPPRLPRPRPRPHQYPRP the “shrunken log2 fold change” value was 2.56. With RRIRLRPPRLPRPRPRPGDEPRP the “shrunken log2 fold change” value was 0.114. RRIRFRPPRLPRPRPRPGNGPRP was tested, and the “shrunken log2 fold change” value was 0.228. With RRIRQRPPRLPRPRPRPGFRPRP the “shrunken log2 fold change” value was 0.0901. In the case of RRIRQRPPRLPRPRPRPNMLPRP, the “shrunken log2 fold change” value is reported as -0.285. With RRIRTRPPRLPRPRPRPEFEPRP the “shrunken log2 fold change” value was 0.0862. In the case of RRIRTRPPRLPRPRPRPSSSPRP, the “shrunken log2 fold change” value is reported as -0.164. In the case of RRIRHRPPRLPRPRPRPDQAPRP, the “shrunken log2 fold change” value is reported as 0.106. RRIRERPPRLPRPRPRPVRTPRP was tested, and the “shrunken log2 fold change” value was 0.496. For RRIRGRPPRLPRPRPRPNEKPRP, the “shrunken log2 fold change” value was 0.0813. RRIRDRPPRLPRPRPRPRQMPRP was tested, and the “shrunken log2 fold change” value was 0.019. In the case of RRIRSRPPRLPRPRPRPMTDPRP, the “shrunken log2 fold change” value is reported as -0.222. With RRIRPRPPRLPRPRPRPSEHPRP the “shrunken log2 fold change” value was -0.233. With RRIRERPPRLPRPRPRPLLVPRP the “shrunken log2 fold change” value was -0.441. In the case of RRIRRRPPRLPRPRPRPQPSPRP, the “shrunken log2 fold change” value is reported as 0.231. In the case of RRIRMRPPRLPRPRPRPVLQPRP, the “shrunken log2 fold change” value is reported as 0.259. RRIRPRPPRLPRPRPRPLNKPRP was tested, and the “shrunken log2 fold change” value was -0.55. With RRIRSRPPRLPRPRPRPLAIPRP the “shrunken log2 fold change” value was -0.0883. RRIRDRPPRLPRPRPRPHVSPRP was tested, and the “shrunken log2 fold change” value was 0.27. With RRIRSRPPRLPRPRPRPFKGPRP the “shrunken log2 fold change” value was 0.112. With RRIRHRPPRLPRPRPRPNYPPRP the “shrunken log2 fold change” value was -0.32. With RRIRERPPRLPRPRPRPWHLPRP the “shrunken log2 fold change” value was -0.349. RRIRHRPPRLPRPRPRPFVPPRP was tested, and the “shrunken log2 fold change” value was -0.455. With RRIRGRPPRLPRPRPRPANTPRP the “shrunken log2 fold change” value was 0.152.
